According to article PMC6669014:

Target: NRTN-GFRα2 complex (wild type) (human) (UniProt Q99748)
Assay: SPR

Sequence of UniProt Q99748 (Q99748 97-197, chain 1 of 2): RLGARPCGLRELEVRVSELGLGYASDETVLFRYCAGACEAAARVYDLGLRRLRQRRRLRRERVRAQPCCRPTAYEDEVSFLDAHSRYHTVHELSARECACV
Sequence of UniProt Q99748 (O00451 22-441, chain 2 of 2, further chain): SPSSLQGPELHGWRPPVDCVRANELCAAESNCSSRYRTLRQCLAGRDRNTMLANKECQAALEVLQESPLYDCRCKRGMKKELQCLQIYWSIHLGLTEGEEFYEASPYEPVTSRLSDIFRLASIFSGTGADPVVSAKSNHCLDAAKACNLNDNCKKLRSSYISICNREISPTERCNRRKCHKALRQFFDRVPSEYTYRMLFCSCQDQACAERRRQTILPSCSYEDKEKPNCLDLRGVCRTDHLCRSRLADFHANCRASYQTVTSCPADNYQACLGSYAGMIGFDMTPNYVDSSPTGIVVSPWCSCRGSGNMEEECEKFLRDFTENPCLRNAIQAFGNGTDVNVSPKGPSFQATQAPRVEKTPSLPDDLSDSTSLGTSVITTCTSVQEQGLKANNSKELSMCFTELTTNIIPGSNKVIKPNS

## human RET extracellular domain (RET^ECD, 29 to 635) (from UniProt P07949 29-635) (receptor)
  increase in response over NRTN alone: 150 RU
